Test results published in patent CN110623921A (BEIJING DONGFANG BIOTECH CO LTD, dated 2019).

T1: CD19 (细胞表面CD19, Raji细胞) (UniProt P15391 20-556, limits assumed)
T1 sequence (looked up): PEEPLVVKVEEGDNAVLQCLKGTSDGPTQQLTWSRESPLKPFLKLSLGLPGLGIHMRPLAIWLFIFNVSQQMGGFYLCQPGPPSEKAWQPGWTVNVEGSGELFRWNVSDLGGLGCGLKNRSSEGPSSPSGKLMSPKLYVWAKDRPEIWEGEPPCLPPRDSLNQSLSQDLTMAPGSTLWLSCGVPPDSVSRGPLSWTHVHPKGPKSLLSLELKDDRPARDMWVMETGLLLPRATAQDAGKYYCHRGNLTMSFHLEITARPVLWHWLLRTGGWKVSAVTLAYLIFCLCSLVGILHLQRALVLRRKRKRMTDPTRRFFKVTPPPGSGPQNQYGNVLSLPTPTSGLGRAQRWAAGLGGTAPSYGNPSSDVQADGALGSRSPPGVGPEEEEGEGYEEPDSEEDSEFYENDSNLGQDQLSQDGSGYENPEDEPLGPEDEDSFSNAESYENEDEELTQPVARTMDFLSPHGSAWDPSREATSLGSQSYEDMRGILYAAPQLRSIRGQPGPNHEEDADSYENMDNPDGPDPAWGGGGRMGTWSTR


Key:
CD19 (细胞表面CD19, Raji细胞) [1] = target: T1, CD19 (细胞表面CD19, Raji细胞); assay: cell-based or functional assay
CD19 (细胞表面CD19, Raji细胞) [2] = target: T1, CD19 (细胞表面CD19, Raji细胞); assay: flow cytometry on Raji cells, Alexa488 anti-human IgG-Fc, MFI fitted in GraphPad Prism
CD3 (细胞表面CD3, Jurkat细胞) = target: T2, CD3 (细胞表面CD3, Jurkat细胞); assay: flow cytometry on Jurkat cells, Alexa488 anti-human IgG-Fc, MFI fitted in GraphPad Prism
T2 construct: whole, on cells; also called CD3抗原; CD3阳性的Jurkat细胞
T2 sequence (P07766 23-207): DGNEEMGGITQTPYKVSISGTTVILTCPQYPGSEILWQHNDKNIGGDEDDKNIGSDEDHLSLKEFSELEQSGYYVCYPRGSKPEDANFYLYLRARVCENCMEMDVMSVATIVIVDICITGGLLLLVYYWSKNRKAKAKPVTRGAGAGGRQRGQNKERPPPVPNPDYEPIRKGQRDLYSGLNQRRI

Binder | EC50 of PBMC-mediated killing of Raji cells (LDH release) (CD19 (细胞表面CD19, Raji细胞) [1]) | EC50 (CD19 (细胞表面CD19, Raji细胞) [2]) | EC50 (CD3 (细胞表面CD3, Jurkat细胞))
抗CD3和抗CD19双特异性抗体JY039 (bispecific antibody) chain 1: not shown chain 2: not shown chain 3: QVQLQQSGAELVRPGSSVKISCKASGYAFSSYWMNWVKQRPGQGLEWIGQIWPGDGDTNYNGKFKGKATLTADESSSTAYMQLSSLASEDSAVYFCARRETTTVGRYYYAMDYWGQGTTVTVSS chain 4: DIQLTQSPASLAVSLGQRATISCKASQSVDYDGDSYLNWYQQIPGQPPKLLIYDASNLVSGIPPRFSGSGSGTDFTLNIHPVEKVDAATYHCQQSTEDPWTFGGGTKLEIK | 0.00126 nM | 1.02 nM | 21.6 nM
抗CD19的单克隆抗体 (JY039的抗CD19序列构建) (antibody, V domains shown, also called AntiCD19McAb; 抗CD19单克隆抗体) VH: QVQLQQSGAELVRPGSSVKISCKASGYAFSSYWMNWVKQRPGQGLEWIGQIWPGDGDTNYNGKFKGKATLTADESSSTAYMQLSSLASEDSAVYFCARRETTTVGRYYYAMDYWGQGTTVTVSS VL: DIQLTQSPASLAVSLGQRATISCKASQSVDYDGDSYLNWYQQIPGQPPKLLIYDASNLVSGIPPRFSGSGSGTDFTLNIHPVEKVDAATYHCQQSTEDPWTFGGGTKLEIK | 0.222 nM | 0.191 nM | 
